The source of these data is IntAct's records for PubMed 16000169.

First the molecules themselves.
B1: DNA polymerase delta subunit 3 (Homo sapiens), Q15054 (parent)
chain: MADQLYLENIDEFVTDQNKIVTYKWLSYTLGVHVNQAKQMLYDYVERKRKENSGAQLHVTYLVSGSLIQNGHSCHKVAVVREDKLEAVKSKLAVTASIHVYSIQKAMLKDSGPLFNTDYDILKSNLQNCSKFSAIQCAAAVPRAPAESSSSSKKFEQSHLHMSSETQANNELTTNGHGPPASKQVSQQPKGIMGMFASKAAAKTQETNKETKTEAKEVTNASAAGNKAPGKGNMMSNFFGKAAMNKFKVNLDSEQAVKEEKIVEQPTVSVTEPKLATPAGLKKSSKKAEPVKVLQKEKKRGKRVALSDDETKETENMRKKRRRIKLPESDSSEDEVFPDSPGAYEAESPSPPPPPSPPLEPVPKTEPEPPSVKSSSGENKRKRKRVLKSKTYLDGEGCIVTEKVYESESCTDSEEELNMKTSSVHRPPAMTVKKEPREERKGPKKGTAALGKANRQVSITGFFQRK

The test covers variants of B1. The conditions noted are these: with pcna_human PCNA.
For K320N;R321G;R322G, the “effect of a mutation on the interaction” value is “disrupting interaction”.
